According to article PMC7641746 (Nucleic Acids Research, 2020):

B1: HsRXRαΔNTD (130–462) (receptor)
chain: FTKHICAICGDRSSGKHYGVYSCEGCKGFFKRTVRKDLTYTCRDNKDCLIDKRQRNRCQYCRYQKCLAMGMKREAVQEERQRGKDRNENEVESTSSANEDMPVERILEAELAVEPKTETYVEANMGLNPSSPNDPVTNICQAADKQLFTLVEWAKRIPHFSELPLDDQVILLRAGWNELLIASFSHRSIAVKDGILLATGLHVHRNSAHSAGVGAIFDRVLTELVSKMRDMQMDKTELGCLRAIVLFNPDSKGLSNPAEVEALREKVYASLEAYCKHKYPEQPGRFAKLLLRLPALRSIGLKCLEHLFFFKLIGDTPIDTFLMEMLEAPHQMT
B2: full-length HsVDR (1–427) (receptor)
chain: MEAMAASTSLPDPGDFDRNVPRICGVCGDRATGFHFNAMTCEGCKGFFRRSMKRKALFTCPFNGDCRITKDNRRHCQACRLKRCVDIGMMKEFILTDEEVQRKREMILKRKEEEALKDSLRPKLSEEQQRIIAILLDAHHKTYDPTYSDFCQFRPPVRVNDGGGSHPSRPNSRHTPSFSGDSSSSCSDHCITSSDMMDSSSFSNLDLSEEDSDDPSVTLELSQLSMLPHLADLVSYSIQKVIGFAKMIPGFRDLTSEDQIVLLKSSAIEVIMLRSNESFTMDDMSWTCGNQDYKYRVSDVTKAGHSLELIEPLIKFQVGLKKLNLHEEEHVLLMAICIVSPDRPGVQDAALIEAIQDRLSNTLQTYIRCRHPPPGSHLLYAKMIQKLADLRSLNEEHSKQYRCLSFQPECSMKLTPLVLEVFGNEIS
B3: rat Nppa (rANF1) DR3 VDRE (dsDNA)
DNA 1: AGAGGTCATGAAGGACATT
DNA 2: AATGTCCTTCATGACCTCT

How the values were obtained:
[1] = target: MED1 (50–660) (human, UniProt Q15648 50-660); experiment: HDX-MS
Sequence of MED1 (50–660) (Q15648 50-660): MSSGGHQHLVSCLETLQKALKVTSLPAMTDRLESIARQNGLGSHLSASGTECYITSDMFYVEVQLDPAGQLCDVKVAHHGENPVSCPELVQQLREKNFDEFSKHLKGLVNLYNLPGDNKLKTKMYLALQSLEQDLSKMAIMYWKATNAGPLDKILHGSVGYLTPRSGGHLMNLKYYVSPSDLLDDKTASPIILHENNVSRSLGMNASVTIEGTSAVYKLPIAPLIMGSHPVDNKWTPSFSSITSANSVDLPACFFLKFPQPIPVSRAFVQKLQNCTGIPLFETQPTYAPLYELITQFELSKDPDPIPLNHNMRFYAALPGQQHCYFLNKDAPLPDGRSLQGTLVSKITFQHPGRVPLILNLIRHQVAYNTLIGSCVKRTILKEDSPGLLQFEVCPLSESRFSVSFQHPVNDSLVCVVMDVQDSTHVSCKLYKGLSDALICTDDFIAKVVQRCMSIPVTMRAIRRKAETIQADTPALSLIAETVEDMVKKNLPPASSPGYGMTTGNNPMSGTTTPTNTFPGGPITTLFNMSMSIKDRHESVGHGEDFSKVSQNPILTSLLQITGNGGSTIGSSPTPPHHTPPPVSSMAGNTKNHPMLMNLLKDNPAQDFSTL

[2] = target: VDR;RXRα ΔNTD (Homo sapiens;Homo sapiens, UniProt P11473;P19793 1-427;130-462, |); experiment: ITC
[3] = target: VDR;RXRα ΔNTD;MED1 (50-660) (Homo sapiens;Homo sapiens;Homo sapiens, UniProt P11473;P19793;Q15648 1-427;130-462;50-660, ||); experiment: SEC-MALLS
Sequence of VDR;RXRα ΔNTD;MED1 (50-660) (Q15648 50-660, stated change not applied, one chain of several): as the sequence (Q15648 50-660) above

Binder	binding result [1]	binding result [2]	binding result [3]
B1	binds		
B2	binds		
B3		binds	binds
